From the supplement of paper PMC9170038

Test system: MS2 coat protein
Test: apparent KD of MS2 coat protein; designed switch direction (-1 OFF switch, 1 ON switch): -1; higher = weaker reporter binding
Procedure, shortened: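 RNA switches sharing common flanks were transcribed by stalled E. coli RNA polymerase on Illumina chips. A doubling series of SNAP-549-labelled MS2 coat protein, from 0.7 or 1.5 nM to 3 µM, was applied in Tris-HCl pH 7.5 buffer with KCl, MgCl2, BSA, DTT, tRNA and Tween-20. Each step lasted 0.8–1.5 h at the bottom of the series and 10–20 min at the top. Normalised cluster fluorescence was curve-fitted, giving apparent KD as the per-design median over clusters.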

[1] = input ligand: microRNA oligo, concentration not stated
[2] = Eterna round: R95, input ligand: FMN 200 uM
[3] = Eterna round: R95, input ligand: microRNA oligo, concentration not stated
[4] = Eterna round: R95, input ligand: none

Row | Sequence | apparent KD of MS2 coat protein (input ligand: FMN 200 uM) [nM] | apparent KD of MS2 coat protein (input ligand: none) [nM] | apparent KD of MS2 coat protein [1] [nM] | apparent KD of MS2 coat protein [2] [nM] | apparent KD of MS2 coat protein [3] [nM] | apparent KD of MS2 coat protein [4] [nM]
1 | AACUCUGAGAAGGAUAUGGUACGGGAAAUGGUACCAGAAGGUUUCACAUGAGGAUCACCCAUGUCGAAUAGUGA [EX6 #68] (Eterna round: R97, puzzle: Exclusion 6) | 28.8 | 27.4 | – | – | – | –
2 | UUAUGUGCGAGAGGAUAUCGUGUACAAAGUACACGAGAAGGCUUCACAUGAGGAUCACCCAUGUACCGAGGUGAAACACCUUGA [Omei Exc(NG)1 Bv7] (Eterna round: R96, puzzle: Exclusion NG 1) | 660 | 887 | 476 | – | – | –
3 | AAUUAAACAUAGGAUAUCGAAUUUAUUAUUUAACGAGAAGGAUGAACAUGAGGAUCACCCAUGUGGUAUCAUGG [Mat - Exclusion 6 - JL Mod - D23] (puzzle: Exclusion 6) | – | – | – | 333 | 197 | 213
4 | CUGGUCCGAGGAUAUAUUAUGUGAAACAUGAGGAUCACCCAUGUAAUAUGAUGGAAAUAAAUAGAAGGCGGACUAG [Mat - Exclusion 5 - JL mod - D32] (puzzle: Exclusion 5) | – | – | – | 26 | 34.5 | 43.5
5 | AGAUGGCGAGGAUAUACAUGAGGAUCACCCAUGUGAAGAUAAAGAGUGAGGAAGAAAAGUAGAAGGCGCUGUCA [Mat - Exclusion 3 - Mod of Salish D28] (puzzle: Exclusion 3) | – | – | – | 351 | 106 | 123
6 | UAAUUUAGUGUGAGGAUAUGCUGGUCGAUAGAUCAGCAGAAGGCACAUGAGGAUCACCCAUGUAAUAUAUUAAA [Mat - Exclusion 4 - JL Mod - D35] (puzzle: Brourd's mod of Exclusion 4) | – | – | – | 218 | 62.4 | 60.2
7 | ACUCUGCGAGGAUAUACAUGAGGAUCACCCAUGUGCGAGUUACUUGUGAGGUCGGUUGGUAGAAGGCGCGGAGA [Mat - Exclusion 3 - Mod of JL D101] (puzzle: Exclusion 3) | – | – | – | – | 89.7 | –
8 | GUCCCACAUGAGGAUCACCCAUGUGAGGAUAUGGUUUCGCUGGCCGUAGCCAGUGGAACCAGAAGGCGCAUGAU [Mat - Exclusion 1 - JL Mod - D2] (Eterna round: R97, puzzle: Exclusion 1) | 25.2 | 20.3 | – | – | – | –
9 | GGAUAAAAGACAGGAUAUACGCACCACUAACGAGUAGAAGGGUCACAUGAGGAUCACCCAUGUGAGUUCUCAAUAAGAAACACG [Prohibition 67 - Jieux - Exclusion NG 1] (Eterna round: R96, puzzle: Exclusion NG 1) | 14.2 | 17.3 | 16.9 | – | – | –
10 | CAGGAAGCGGAGGAUAUGAUGAAAACUCGGCAAUCAGAAGGCCGCACAUGAGGAUCACCCAUGUCGCAAAUACC [Eternabot (Original) Solution 36] (Eterna round: R97, puzzle: Exclusion 6) | 16.6 | 15.3 | – | – | – | –
11 | CGGGUCUGAGGAUAUCCACCCUCAUACAUGAGGAUCACCCAUGUUCACCCUUGGGUUCCCGGAGAAGGCAGUUUUC [Megrez-3.6] (Eterna round: R97, puzzle: Exclusion 5) | 275 | 208 | – | – | – | –
12 | CCAAGCUUAUUCAUUAACCACAUGAGGAUCACCCAUGUAUAGGCAAUUAUGACUGGGCUCUGUGGUGCUCGUCUUCU [mod-malcom] (Eterna round: R97, puzzle: Sensor, turn-off variant 1) | 59.7 | 60.3 | – | – | – | –
13 | AGUCGUAGACAGGAUAUGCGGCUAAUAAAUAAAGCAGAAGGGUCUACUUGAGGAUCACCCAAGUGGGCGGUCUG [jl-ex6-4.22 ViennaUCT mod] (Eterna round: R97, puzzle: Exclusion 6) | 64.9 | 16.9 | – | – | – | –
14 | UGUGCGUAUGUGAGGAUAUGCUGGUCCUUGGAUCGGCAGAAGGCACAUGAGGAUCACCCAUGUGGUGUCGUACG [salish99_Bmod_ex4_079] (puzzle: Brourd's mod of Exclusion 4) | – | – | – | 191 | 82.8 | 142
15 | GAUAGAGAGCAGGAUAUCUUGGAUAAGUGUUGUAGAGAAGGGCUCACAUGAGGAUCACCCAUGUGGUCCUAGAU [JL Dibiri mod 09] (puzzle: Exclusion 6) | – | – | – | 37.5 | 13.2 | 14.3
16 | UAUGUGUCAGGAUAUUAGUAGUAAAUAAAUAAAAUUAUUACUGAGAAGGGACAUGAGGAUCACCCAUGUACCUU [JR_Ex4_Sub051] (Eterna round: R97, puzzle: Exclusion 4) | 22.6 | 16.2 | – | – | – | –
17 | AGCGUGGAGACAGGAUAUGAGAAUAGAUAGAACUCAGAAGGGUCACAUGAGGAUCACCCAUGUAAAGUCUUGAGGAUGAGUGGU [Prohibition 5 - Jieux - Exclusion NG 1] (Eterna round: R96, puzzle: Exclusion NG 1) | 119 | 51.1 | 29 | – | – | –

Row | Sequence | apparent KD of MS2 coat protein (input ligand: FMN 200 uM) [nM] | apparent KD of MS2 coat protein (input ligand: none) [nM] | apparent KD of MS2 coat protein [1] [nM] | apparent KD of MS2 coat protein [2] [nM] | apparent KD of MS2 coat protein [3] [nM] | apparent KD of MS2 coat protein [4] [nM]
18 | AUGUUACUCUGAGGAUAUUGUUUAUUCUUCUCACAUGAGGAUCACCCAUGUUUCCGUGUUUACCGCAAGAAGGCAGUUUUGUUU [JR_ExcNG2_Sub028] (Eterna round: R96, puzzle: Exclusion NG 2) | 41.1 | 31.8 | 29 | – | – | –
19 | GAUUAUGCGAGCUUUAGGGACAUGAGGAUCACCCAUGUUCGUCUUAUUAGUCUAAAUACGCUGACAUACCUAAAUCU [JMF 94] (puzzle: Sensor v3, turn-off variant 1) | – | – | – | 14 | 18 | 18.2
20 | GAAUAGCGAGGAUAUGCAAUGAAGGUAGUACGAUAUGGCUGACAUGAGGAUCACCCAUGUAGAAGGCGCUGAUC [EX2 #11] (Eterna round: R97, puzzle: Exclusion 2) | 116 | 65.8 | – | – | – | –
21 | UGUAACCGAGGAUAUACAUGAGGAUCACCCAUGUAAUGUAGUAUAGUGUAUGUAAGGUGUAGAAGGUGGGAUGU (Eterna round: R97, puzzle: Exclusion 3) | 48.4 | 74.7 | – | – | – | –
22 | GGGCCUCAUGUGAGGAUAUUGGAUGAGGUGCGAGACGAGAAGGCACAUGAGGAUCACCCAUGUAACUAACCAAA [Bimaen] (Eterna round: R97, puzzle: Brourd's mod of Exclusion 4) | 34.8 | 85 | – | – | – | –
23 | UAUAUAUAGUAAGGAUAUAUAUUUAUUUUAUAAAUAGAAGGUACAGACAUGAGGAUCACCCAUGUUAUAAUAUGGACAUGUGGA [JMF's Solution 1] (Eterna round: R96, puzzle: Exclusion NG 1) | – | – | 45.3 | – | – | –
24 | GUGUGCUGAGGAUAUACAGAGGAAGAUAAUAGAAUAGAAUGACAUGAGGAUCACCCAUGUAGAAGGCAGAGUGU [Excluse me!! 14 - Jieux - Exclusion 2] (puzzle: Exclusion 2) | – | – | – | 40.5 | 26.3 | 33.1
25 | CGGAGCAGAGGGAGAUCCAACAUGAGGAUCACCCAUGUCUCAUAAGCUUUUUGCUCAUCUUAUUGUACCUUGGUGCU [JL ViennaUCT Edcesobi mod 5] (puzzle: Sensor v3, turn-off variant 1) | – | – | – | 37.3 | 15.4 | 46.4
26 | UGCUGACGAGGAUAUACAUGAGGAUCACCCAUGUUGGUUCAGCGACUUCGGUCGCAAUGUAGAAGGCGUCAGCA [E3/9-A5] (Eterna round: R97, puzzle: Exclusion 3) | 230 | 523 | – | – | – | –
27 | UACAUGAGGAUCACCCAUGUUUUGUCGUGUAUGGUACCCGUUUAGGAUAUCGUGUUAUUGGACCGCGAGAAGGAGAGUAUCAAU [Excl-NG3-LRO04] (Eterna round: R96, puzzle: Exclusion NG 3) | 26.5 | 29.4 | 22.8 | – | – | –
28 | CCGCAAAUGAAGGAUAUCGUAUCGGAUACGAUACGAGAAGGUCGAACAUGAGGAUCACCCAUGUGUCCUAGCGG [Fiskers Ex 6 - 41] (puzzle: Exclusion 6) | – | – | – | 19.4 | 11.2 | 12.1
29 | AUAACGAUAGUCAGGAUAUCGGUGGCAUCCGUCACCGAGAAGGGACAUGAGGAUCACCCAUGUUAAGCCUAUGA [Eternabot (L1) Solution 69] (Eterna round: R97, puzzle: Brourd's mod of Exclusion 4) | 11.5 | 19.3 | – | – | – | –
30 | AAGAAACAUGAGGAUCACCCAUGUGAGGAUAUGACGAAGAAAAGAAAAGAAAGAAGAAUCAGAAGGCACAAAGG [salish99-ex1_r3_052] (puzzle: Exclusion 1) | – | – | – | 64.1 | 40.8 | 51.6
31 | CCGGCAUGAGGAUAUCCAUCUGGAUCAGACUAGAUCCUGAUGGAGAAGGCACAUGAGGAUCACCCAUGUUACGG [Eli 4x 4.38] (Eterna round: R97, puzzle: Exclusion 4) | 51.2 | 173 | – | – | – | –
32 | UUAACAUGCUGGUGAUCAUACAUGAGGAUCACCCAUGUAACAAGCUUUUUGCUCGUCUUAUAAGAUCACCAGCAUGU [Stov1/9-A1] (Eterna round: R97, puzzle: Sensor, turn-off variant 1) | 14.7 | 12.2 | – | – | – | –
33 | AUGCCCUGAGGAUAUCUCAUCCCGCACAUGAGGAUCACCCAUGUUCUUCUCUGGGUUUCGAGAGAAGGCAGGCCUA [Armus3] (Eterna round: R97, puzzle: Exclusion 5) | 53.6 | 118 | – | – | – | –
